According to article PMC3758481:

What was measured:
[1] = biological target: spin labeled S697C mutant of C99 (human) (UniProt P05067); assay: continuous wave EPR of spin labeled protein
[2] = biological target: spin labeled L705C mutant of C99 (human) (UniProt P05067); assay: continuous wave EPR of spin labeled protein

KD, average of four fits (sites S697C and L705C, two fields each) [1] [mol%]	KD, average of four fits (sites S697C and L705C, two fields each) [2] [mol%]	Substance
0.44		spin labeled S697C mutant of C99 (from UniProt P05067 672-770) (domain or fragment)
	0.44	spin labeled L705C mutant of C99 (from UniProt P05067 672-770) (domain or fragment)
